Sequences and labels used below:
B1: G213A: heparinase I CB-1 mutant, glycine 213 changed to alanine (protein, UniProt Q05819 22-384, looked up, variant G213A)
Heparin lyase I: QQKKSGNIPYRVNVQADSAKQKAIIDNKWVAVGINKPYALQYDDKLRFNGKPSYRFELKAEDNSLEGYAAGETKGRTELSYSYATTNDFKKFPPSVYQNAQKLKTVYHYGKGICEQGSSRSYTFSVYIPSSFPDNATTIFAQWHGAPSRTLVATPEGEIKTLSIEEFLALYDRMIFKKNIAHDKVEKKDKDAKITYVAGKPNGWKVEQGGYPTLAFGFSKGYFYIKANSDRQWLTDKADRNNANPENSEVMKPYSSEYKTSTIAYKMPFAQFPKDCWITFDVAIDWTKYGKEANTILKPGKLDVMMTYTKNKKPQKAHIVNQQEILIGRNDDDGYYFKFGIYRVGNSTVPVTYNLSGYSETAR
B2: Y379A: heparinase I CB-2 mutant, tyrosine 379 changed to alanine (protein, UniProt Q05819 22-384, looked up, variant Y379A)
Heparin lyase I: B1 Heparin lyase I with A192G, Y358A
B3: D210A/D212A: heparinase I CB-1 double mutant (protein, UniProt Q05819 22-384, looked up, variant D210A D212A)
Heparin lyase I: B1 Heparin lyase I with D189A, D191A, A192G
B4: G213A/T216A: heparinase I CB-1 double mutant (protein, UniProt Q05819 22-384, looked up, variant G213A T216A)
Heparin lyase I: B1 Heparin lyase I with T195A
B5: T216A: heparinase I CB-1 mutant, threonine 216 changed to alanine (protein, UniProt Q05819 22-384, looked up, variant T216A)
Heparin lyase I: B1 Heparin lyase I with A192G, T195A
B6: S377A: heparinase I mutant where serine 377 is mutated to alanine; calcium-independent (protein, UniProt Q05819 22-384, looked up, variant S377A)
Heparin lyase I: B1 Heparin lyase I with A192G, S356A
B7: T382A: heparinase I CB-2 mutant, threonine 382 changed to alanine (protein, UniProt Q05819 22-384, looked up, variant T382A)
Heparin lyase I: B1 Heparin lyase I with A192G, T361A
B8: G378A: heparinase I CB-2 mutant, glycine 378 changed to alanine (protein, UniProt Q05819 22-384, looked up, variant G378A)
Heparin lyase I: B1 Heparin lyase I with A192G, G357A
B9: T373A: heparinase I CB-2 mutant, threonine 373 changed to alanine (protein, UniProt Q05819 22-384, looked up, variant T373A)
Heparin lyase I: B1 Heparin lyase I with A192G, T352A
B10: D210A: heparinase I CB-1 mutant, aspartate 210 changed to alanine (protein, UniProt Q05819 22-384, looked up, variant D210A)
Heparin lyase I: B1 Heparin lyase I with D189A, A192G
B11: E207A/D210A: heparinase I CB-1 double mutant (protein, UniProt Q05819 22-384, looked up, variant E207A D210A)
Heparin lyase I: B1 Heparin lyase I with E186A, D189A, A192G
B12: D212A: heparinase I CB-1 mutant, aspartate 212 changed to alanine (protein, UniProt Q05819 22-384, looked up, variant D212A)
Heparin lyase I: B1 Heparin lyase I with D191A, A192G
B13: E207A/D212A: heparinase I CB-1 double mutant (protein, UniProt Q05819 22-384, looked up, variant E207A D212A)
Heparin lyase I: B1 Heparin lyase I with E186A, D191A, A192G
B14: D212A/T216A: heparinase I CB-1 double mutant (protein, UniProt Q05819 22-384, looked up, variant D212A T216A)
Heparin lyase I: B1 Heparin lyase I with D191A, A192G, T195A

This note sets out measurements from US7560106B2, “Rationally designed heparinases derived from heparinase I and II and methods of sequencing therewith” (Massachusetts Institute of Technology, priority 1998, dated 2009).

What is called Km is the concentration of substrate that gives half-maximal velocity.

Substitutions are numbered along the chain they refer to. In names and notes the source's numbering stands. Entries after “also recorded” stand apart in the source; their conditions may differ.

The first data set in a line: Heparinase I UV 232 nm activity assay as a function of heparin concentration (Kcat, Km).
Conditions: not given
The class given is biochemical, porcine. From the text:
Heparinase II Activity Assay. Native heparinase II from Flavobacterium heparinum, was purified as described previously (Godavarti, R., and Sasisekharan, R (1996c) Biochem. Biophys. Res. Comm. 229, 770-777). The UV 232 nm assay to quantify native heparinase II enzymatic activity was similar to that reported for heparinase I (Bernstein, H., Yang, V. C., Cooney, C. L., Langer, R. (1988) Meth. Enzym. 137, 515-29). Briefly, the course of the reaction is monitored by measuring the increase in absorbance at 232 nm as a function of time under saturating substrate concentrations. With heparin as the substrate, the reaction was carried out at a concentration of 4 mg/ml in 50 mM sodium phosphate buffer, pH 7.3. With 2 mg/ml heparan sulfate, the reaction was measured in 50 mM sodium phosphate buffer, pH 6.9 (Sasisekharan, R., Moses, M. A., Nugent, M. A., Cooney, C. L., Langer, R. (1994) Proc. Natl. Acad. Sci., USA 91, 1524-1528). The temperature for all enzymatic activity measurements was kept constant at 35° C.
Heparinase I Activity Assay. The UV 232 nm assay to quantify heparinase I enzymatic activity was similar to that described in Example 1. With heparin as the substrate, the reaction was carried out at a concentration of 4 mg/ml in 100 mM MOPS, 5 mM calcium acetate, pH 7.0. The temperature for all enzymatic activity measurements was kept constant at 30° C. For the inactivation kinetic profiles, activity was measured as outlined above at precise time points.
(§1) Heparinase I Activity Assays: The UV 232 nm assay was used as described in Example 1. When measuring the enzyme activity as a function of heparin concentration, heparin concentrations varied from 0 to 4 mg/ml at a fixed calcium concentration of 5 mM (100 mM MOPS buffer/5 mM calcium acetate, pH 7.0). The data was then fit to an non-linear equation to determine Kcat and Km of heparinases I. Heparinase mutant activity was also investigated as a function of calcium concentration ranging from 0 to 10 mM. […] Activity is expressed as IU-μmol product formed/min using ∈=−3800-M^−1CM^−1.
In the case of B1, the “decrease in Kcat compared to wild-type r-heparinase I” value (“decrease in Kcat” for short) was “about 3 fold”.

As for B2, the “decrease in Kcat” value was “about 10 fold”.

Turning to B3, the “decrease in Kcat” value was 4.5 fold.

Turning to B4, the “decrease in Kcat” value is listed as 5 fold.

In the case of B5, the “decrease in Kcat” value is reported as roughly 2 fold.

The data set is the same for the next values; noted with them: compared to wild-type r-heparinase I.
As to B6, the “effect on enzyme activity (kcat), in words” value (shortened to “effect on enzyme activity”) is listed as “no significant decrease in enzyme activity”.

In the case of B7, the “effect on enzyme activity” value is on record as “decreased only by about 1 half”.

Take B8: the “effect on enzyme activity” value was “decreased only by about 1 half”.

B9: the “effect on enzyme activity” value is listed as “no significant decrease in enzyme activity”.

Still in this data set, the particulars now being: heparin 0 to 4 mg/ml, 5 mM calcium acetate, 100 mM MOPS, pH 7.0.
In the case of B10, the Kcat worked out at 74 s⁻¹.

With B6, the Kcat is 71 s⁻¹.

In the case of B1, the Kcat stood at 28 s⁻¹.

Consider B7, for which the Kcat worked out at 65 s⁻¹.

Regarding B2, the Kcat worked out at 9 s⁻¹.

As to B3, the Kcat is 21 s⁻¹.

With B11, the Kcat is 65 s⁻¹.

As for B12, the Kcat came to 65 s⁻¹.

Regarding B13, the Kcat was determined as 58 s⁻¹.

In the case of B14, the Kcat is 52 s⁻¹.

In the case of B8, the Kcat was 41 s⁻¹.

Take B9: the Kcat was 85 s⁻¹.

With B4, the Kcat was 19 s⁻¹.

Turning to B5, the Kcat came to 50 s⁻¹.

The same data set, now with this note: heparin 0 to 4 mg/ml, 5 mM calcium acetate, pH 7.0.
B10: the Michaelis-Menten constant (Km) turned out to be 2.64 µM.

On to B6, for which the Km was determined as 2.74 µM.

Take B1: the Michaelis-Menten constant (Km) amounted to 0.97 µM.

In the case of B7, the Michaelis constant (Km) was 1.64 µM.

For the molecule B2, the Michaelis-Menten constant (Km) amounted to 0.32 µM.

As for B3, the Km is 0.32 µM.

For B11, the Km was found to be 2.77 µM.

B12: the Km worked out at 1.94 µM.

As for B13, the Michaelis-Menten constant (Km) was 0.93 µM.

As for B14, the Michaelis constant (Km) was found to be 1.52 µM.

For the molecule B8, the Km was 0.74 µM.

Turning to B9, the Michaelis constant (Km) came out at 0.96 µM.

With B4, the Km was 0.83 µM.

Regarding B5, the Michaelis constant (Km) is 1.45 µM.

The nature of a further data set: Heparinase I activity as a function of calcium concentration (K0.5, calcium dependence). It counts as biochemical.
Conditions: not given
As for the experimental part: as §1
For the molecule B6, the “dependence of enzyme activity on calcium” value is recorded as “loss of dependence on calcium; also recorded: calcium-independent”.

Staying with this data set, now noted: Table 4 second K0.5 column.
For the molecule B10, the K0.5 was 310 µM.

On to B6, for which the K0.5 was 50 µM.

In the case of B1, the K0.5 came out at 740 µM.

B7: the K0.5 was determined as 100 µM.

B2: the K0.5 was determined as 230 µM.

Turning to B3, the K0.5 was 700 µM.

Consider B11, for which the K0.5 was found to be 470 µM.

Regarding B12, the K0.5 was 370 µM.

Take B13: the K0.5 came out at 710 µM.

On to B14, for which the K0.5 turned out to be 320 µM.

Turning to B8, the K0.5 was 80 µM.

For B9, the K0.5 was 50 µM.

For B4, the K0.5 was determined as 2200 µM.

B5: the K0.5 was found to be 430 µM.

The data set is the same for the next values; noted with them: calcium concentration at which half of the maximum enzyme activity was observed; calcium 0 to 10 mM; Table 4 first K0.5 column.
On to B10, for which the K0.5 was 310 µM.

As to B6, the K0.5 was found to be 50 µM.

As to B1, the K0.5 was 740 µM.

Take B7: the K0.5 was determined as 100 µM.

As to B2, the K0.5 was 230 µM.

In the case of B3, the K0.5 came out at 700 µM.

With B11, the K0.5 was 470 µM.

B12: the K0.5 is 370 µM.

With B13, the K0.5 came out at 710 µM.

Turning to B14, the K0.5 was determined as 320 µM.

For B8, the K0.5 worked out at 80 µM.

Regarding B9, the K0.5 was 50 µM.

On to B4, for which the K0.5 is 2200 µM.

B5: the K0.5 is 430 µM.

The nature of a further data set: Heparin-POROS affinity chromatography.
Conditions: not given
It counts as binding. The protocol:
Heparin-POROS chromatography: About 30-40 μg of -L r-heparinase I and the various mutant enzymes were injected into a heparin POROS (4.6 mm×100) column (PerSeptive BioSystems, Framingham, Mass.) connected to BioCAD system (PerSeptive BioSystems). Proteins were eluted using a linear gradient of […] NaCl in 10 min (10 mM Tris, 1 mM EDTA pH 7.0) and monitored at 210 nm. EDTA was added to chelate any calcium ions that may be present in the buffers.
For the molecule B6, the “elution salt concentration / heparin binding relative to wild-type r-heparinase I, in words” value was “comparable to wild-type r-heparinase I”.

B7: the “elution salt concentration / heparin binding relative to wild-type r-heparinase I, in words” value is given as “comparable to wild-type r-heparinase I”.

With B2, the “elution salt concentration / heparin binding relative to wild-type r-heparinase I, in words” value was “comparable to wild-type r-heparinase I”.

Take B8: the “elution salt concentration / heparin binding relative to wild-type r-heparinase I, in words” value was “comparable to wild-type r-heparinase I”.

With B9, the “elution salt concentration / heparin binding relative to wild-type r-heparinase I, in words” value is “comparable to wild-type r-heparinase I”.

The data set is the same for the next values; noted with them: salt concentration at which enzyme elutes from heparin-POROS column; 10 mM Tris, 1 mM EDTA pH 7.0.
Take B10: the NaCl was 500 mM.

In the case of B6, the NaCl is on record as 486 mM.

With B1, the NaCl worked out at 476 mM.

As for B7, the NaCl was determined as 488 mM.

For the molecule B2, the NaCl was determined as 489 mM.

Turning to B3, the NaCl turned out to be 515 mM.

As to B11, the NaCl is 513 mM.

B12: the NaCl turned out to be 498 mM.

For B13, the NaCl amounted to 513 mM.

As for B14, the NaCl stood at 497 mM.

On to B8, for which the NaCl came out at 489 mM.

As to B9, the NaCl is 480 mM.

B4: the NaCl was determined as 498 mM.

For the molecule B5, the NaCl is recorded as 479 mM.
